PMC3823977, “Protein Interaction Analysis of Senataxin and the ALS4 L389S Mutant Yields Insights into Senataxin Post-Translational Modification and Uncovers Mutant-Specific Binding with a Brain Cytoplasmic RNA-Encoded Peptide” (PLoS ONE, 2013)

Target: the molecule itself
Assay: SEC; size-exclusion chromatography of recombinant senataxin (1–600) after cleavage from GST

B1: recombinant amino-terminal senataxin (1–600), GST cleaved (domain or fragment, human, UniProt Q7Z333-1 1-600, looked up)
chain: MSTCCWCTPGGASTIDFLKRYASNTPSGEFQTADEDLCYCLECVAEYHKARDELPFLHEVLWELETLRLINHFEKSMKAEIGDDDELYIVDNNGEMPLFDITGQDFENKLRVPLLEILKYPYLLLHERVNELCVEALCRMEQANCSFQVFDKHPGIYLFLVHPNEMVRRWAILTARNLGKVDRDDYYDLQEVLLCLFKVIELGLLESPDIYTSSVLEKGKLILLPSHMYDTTNYKSYWLGICMLLTILEEQAMDSLLLGSDKQNDFMQSILHTMEREADDDSVDPFWPALHCFMVILDRLGSKVWGQLMDPIVAFQTIINNASYNREIRHIRNSSVRTKLEPESYLDDMVTCSQIVYNYNPEKTKKDSGWRTAICPDYCPNMYEEMETLASVLQSDIGQDMRVHNSTFLWFIPFVQSLMDLKDLGVAYIAQVVNHLYSEVKEVLNQTDAVCDKVTEFFLLILVSVIELHRNKKCLHLLWVSSQQWVEAVVKCAKLPTTAFTRSSEKSSGNCSKGTAMISSLSLHSMPSNSVQLAYVQLIRSLLKEGYQLGQQSLCKRFWDKLNLFLRGNLSLGWQLTSQETHELQSCLKQIIRNIKFKAP
notes: vector pGEX-4T-2; also called purified senataxin peptide; source: E. coli, GST-tagged, purified after in vitro cleavage
stoichiometry N: 2
